Reference: patent publication US20240101668A1 (WUGEN, published 2024)

Columns and labels:
[1] = molecular target: T1, huFLT3-M227 stably expressed on Ramos cells (human, UniProt P36888 27-993); test: FACS on cells
T1 construct: whole, on cells; also called FLT3 Mutant
Procedure: (§1) For FLT3, Ramos cells were engineered to stably express either the huFLT3-T227 or huFLT3-M227 variant at >200,000 receptors per cell. Parental, huFLT3-T227, and huFLT3-M227 Ramos cell lines were stained with differing levels of CellTrace Violet Cell Proliferation Kit (ThermoFisher, cat. #C34557) to barcode each cell line. Barcoded Ramos cell lines were fixed with paraformaldehyde and incubated with myc-labeled scFv periplasmic extracts and a secondary anti-myc PE-conjugated monoclonal antibody. Appropriate positive and negative controls were used. Stained cells were analyzed by flow cytometry (CytoFLEX, Beckman Coulter, Inc.) and binding was assessed by change in PE mean fluorescence intensity (MFI) of the barcoded cell populations.

[2] = molecular target: T2, huFLT3-T227 stably expressed on Ramos cells (human, UniProt P36888 27-993); test: FACS on cells
T2 construct: whole, on cells; also called FLT3 WT
Procedure: as §1

Row | Binder | FACS geometric mean fold change over Jurkat parental [1] [fold] | FACS geometric mean fold change over Jurkat parental [2] [fold]
1 | Polypeptide No. 247 (scFv, V domains shown, scFv) VH: QVQLVQSGAEVKKPGASVKVSCKASGGTLMSYAISWVRQAPGQGLEWMGIINPRGGTTRYAQKFQGRVTMTRDTSTSTVYMELSSLRSEDTAVYYCARSEDSGYDYLDYWGQGTLVTVSS VL: EIVMTQSPATLSVSPGERATLSCRGSQSISGNYLAWYQQKPGQAPRLLIYDTSARAAGIPARFSGSGSGTEFTLTISSLQSEDFAVYYCQQYNSYPLTFGGGTKVEIKR | 2 to 10 | 2 to 10
2 | Polypeptide No. 262 (scFv, V domains shown, scFv) VH: QVQLVQSGAEVKKPGASVKVSCKASGFTFSDYGYYMHWVRQAPGQGLEWMGWMDPSSGHTGYAQRFQGRVTMTRDTSTSTVYMELSSLRSEDTAVYYCAKDIGWGAFDIWGQGTTVTVSS VL: EIVMTQSPATLSVSPGERATLSCRASQRVGNTYLAWYQQKPGQAPRLLIYDVSARASGIPARFSGSGSGTEFTLTISSLQSEDFAVYYCQQYLSPPLTFGGGTKVEIKR | 10 to 30 | 10 to 30
3 | Polypeptide No. 269 (scFv, V domains shown, scFv) VH: QVQLVQSGAEVKKPGASVKVSCKASGGSFSSYALHWVRQAPGQGLEWMGLINPSGGRTSYAQKFQGRVTMTRDTSTSTVYMELSSLRSEDTAVYYCARDEGYATFDYWGQGTLVTVSS VL: EIVMTQSPATLSVSPGERATLSCRASQSISSSYLAWYQQKPGQAPRLLIYDVSARATGIPARFSGSGSGTEFTLTISSLQSEDFAVYYCQQYYSTPLTFGPGTKVDIKR | 10 to 30 | 10 to 30
4 | Polypeptide No. 256 (scFv, V domains shown, scFv) VH: QVQLVQSGAEVKKPGASVKVSCKASGYTFATYYLHWVRQAPGQGLEWMGMINPSGGSTIYAQKFQGRVTMTRDTSTSTVYMELSSLRSEDTAVYYCARSSGYDFFDYWGQGTLVTVSS VL: DIQMTQSPSSLSASVGDRVTITCRASHDINNYLNWYQQKPGKAPKLLIYDASNLETGVPSRFSGSGSGTDFTLTISSLQPEDFATYYCQQADSFPLTFGGGTKVEIKR | > 30 | > 30
5 | Polypeptide No. 270 (scFv, V domains shown, scFv) VH: QVQLVQSGAEVKKPGASVKVSCKASGGTFSSYYMHWVRQAPGQGLEWMGWISAYNGNTNYAQKLQGRVTMTRDTSTSTVYMELSSLRSEDTAVYYCAKDMGYYYDSSGGFDYWGQGTLVTVSS VL: DIQMTQSPSSLSASVGDRVTITCRASQSISSYLNWYQQKPGKAPKLLIYDASNLETGVPSRFSGSGSGTDFTLTISSLQPEDFATYYCQQTYTTPLTFGQGTKVEIKR | 10 to 30 | 10 to 30
6 | Polypeptide No. 290 (scFv, V domains shown, scFv) VH: QVQLVQSGAEVKKPGASVKVSCKASGGTFTSYYMHWVRQAPGQGLEWMGWISAYNGKTDYAQKFQGRVTMTRDTSTSTVYMELSSLRSEDTAVYYCARDQGYYYDSSGAFDIWGQGTLVTVSS VL: DIQMTQSPSSLSASVGDRVTITCRASQSISSYLNWYQQKPGKAPKLLIYDASNLETGVPSRFSGSGSGTDFTLTISSLQPEDFATYYCQQTYSAPPTFGQGTKLEIKR | 10 to 30 | 10 to 30
7 | Polypeptide No. 246 (scFv, V domains shown, scFv) VH: QVQLVQSGAEVKKPGSSVKVSCKASGGTFTSYFMHWVRQAPGQGLEWMGGIIPMFGAPVYAQDFQGRVTITADESTSTAYMELSSLRSEDTAVYYCAAGLDFWSGPDNYYMDVWGKGTTVTVSS VL: DIQMTQSPSSLSASVGDRVTITCQATQDISNYLNWYQQKPGKAPKLLIYGASNLPSGVPSRFSGSGSGTDFTLTISSLQPEDFATYYCQQSYSDLLTFGPGTKVDIKR | 2 to 10 | 10 to 30
8 | Polypeptide No. 243 (scFv, V domains shown, scFv) VH: QVQLVQSGAEVKKPGSSVKVSCKASGGTFSSHAFNWVRQAPGQGLEWMGGISPMFGTPNYAQKFQGRVTITADESTSTAYMELSSLRSEDTAVYYCARAPDYGDDWYFDLWGRGTLVTVSS VL: EIVMTQSPATLSVSPGERATLSCRASQTLTGGLLAWYQQKPGQAPRLLIYDTSSRAAGIPARFSGSGSGTEFTLTISSLQSEDFAVYYCHHYGSSPYTFGQGTKVEIKR | 2 to 10 | 2 to 10
9 | Polypeptide No. 265 (scFv, V domains shown, scFv) VH: QVQLVQSGAEVKKPGSSVKVSCKASGHTFTSDYMHWVRQAPGQGLEWMGRIIPIFGTADYAQKFQGRVTITADESTSTAYMELSSLRSEDTAVYYCARDDSSGIFDYWGQGTLVTVSS VL: EIVMTQSPATLSVSPGERATLSCRASQSVNSEHLAWYQQKPGQAPRLLIYDTSSRATGIPARFSGSGSGTEFTLTISSLQSEDFAVYYCQQYGSSPVTFGQGTKVEIKR | 10 to 30 | 10 to 30
10 | Polypeptide No. 259 (scFv, V domains shown, scFv) VH: QVQLVQSGAEVKKPGSSVKVSCKASGYTFTSSEINWVRQAPGQGLEWMGGIHPMFGTTNYAQKFQGRVTITADESTSTAYMELSSLRSEDTAVYYCARARLMVYAPSDYWGQGTLVTVSS VL: not shown | 10 to 30 | 10 to 30
11 | Polypeptide No. 260 (scFv, V domains shown, scFv) VH: QVQLVQSGAEVKKPGASVKVSCKASGYTFTNYYVHWVRQAPGQGLEWMGMINPSGGSTNYAQKFQGRVTMTRDTSTSTVYMELSSLRSEDTAVYYCARVSGWKRGWFDPWGQGTLVTVSS VL: DIQMTQSPSSLSASVGDRVTITCRSSQSISTYLNWYQQKPGKAPKLLIYGASNLQSGVPSRFSGSGSGTDFTLTISSLQPEDFATYYCQQVISYPITFGGGTKVEIKR | > 30 | > 30
12 | Polypeptide No. 253 (scFv, V domains shown, scFv) VH: QVQLVQSGAEVKKPGSSVKVSCKASGYTFTTYFMHWVRQAPGQGLEWMGGIVPVFGTTKYAQKFQGRVTITADESTSTAYMELSSLRSEDTAVYYCASSAVGWFDPWGQGTLVTVSS VL: DIQMTQSPSSLSASVGDRVTITCRASQDISRWLAWYQQKPGKAPKLLIYAASSLQSGVPSRFSGSGSGTDFTLTISSLQPEDFATYYCQQYDNFPLTFGGGTKLEIKR | 2 to 10 | 2 to 10
13 | Polypeptide No. 254 (scFv, V domains shown, scFv) VH: QVQLVQSGAEVKKPGASVKVSCKASGYTFTSHYMHWVRQAPGQGLEWMGWISPYNGNTNYAQKLQGRVTMTRDTSTSTVYMELSSLRSEDTAVYYCARGESNSGWINFDYWGQGTLVTVSS VL: EIVMTQSPATLSVSPGERATLSCRASQSVSSSSLAWYQQKPGQAPRLLIYDTSTRATGIPARFSGSGSGTEFTLTISSLQSEDFAVYYCQQYGTSPITFGQGTRLEIKR | 2 to 10 | 10 to 30
14 | Polypeptide No. 273 (scFv, V domains shown, scFv) VH: QVQLVQSGAEVKKPGSSVKVSCKASGDTFNSYAVNWVRQAPGQGLEWMGGIIPSFGTPTYAWKFQGRVTITADESTSTAYMELSSLRSEDTAVYYCASVSYGSFDYWGQGTLVTVSS VL: EIVMTQSPATLSVSPGERATLSCRASQSVSSSSLAWYQQKPGQAPRLLIYDASTRASGIPARFSGSGSGTEFTLTISSLQSEDFAVYYCQQYNRLPYTFGQGTKLEIKR | 10 to 30 | 10 to 30
15 | Polypeptide No. 249 (scFv, V domains shown, scFv) VH: QVQLVQSGAEVKKPGASVKVSCKASGYTFTSDGISWVRQAPGQGLEWMGWMNPNSGNAGYAQKFQGRVTMTRDTSTSTVYMELSSLRSEDTAVYYCATAVAGTDAFDIWGQGTMVTVSS VL: EIVMTQSPATLSVSPGERATLSCRASQSIGNNLKAWYQQKPGQAPRLLIYDTSAHTTGIPARFSGSGSGTEFTLTISSLQSEDFAVYYCQHYGNSLTFGQGTKVEIK | 2 to 10 | 2 to 10
16 | Polypeptide No. 244 (scFv, V domains shown, scFv) VH: QVQLVQSGAEVKKPGASVKVSCKASGYTFTSYYMHWVRQAPGQGLEWMGRINPSGGSTSYAQSFQGRVTMTRDTSTSTVYMELSSLRSEDTAVYYCARVPGLYGGAIDYWGQGTLVTVSS VL: DIQMTQSPSSLSASVGDRVTITCRASQDIRNDLGWYQQKPGKAPKLLIYAASSLQSGVPSRFSGSGSGTDFTLTISSLQPEDFATYYCQQSYSSPFTFGQGTKVEIKR | > 30 | > 30
17 | Polypeptide No. 248 (scFv, V domains shown, scFv) VH: QVQLVQSGAEVKKPGASVKVSCKASGYTFTGYYMHWVRQAPGQGLEWMGVINPNGGSISYAQKFQGRVTMTRDTSTSTVYMELSSLRSEDTAVYYCAREGWFGEDGMDVWGQGTTVTVSS VL: DIQMTQSPSSLSASVGDRVTITCRASQDLDRYLAWYQQKPGKAPKLLIYAASSLQTGVPSRFSGSGSGTDFTLTISSLQPEDFATYYCQQYYSTPYTFGQGTKLEIKR | 2 to 10 | 2 to 10
18 | Polypeptide No. 257 (scFv, V domains shown, scFv) VH: QVQLVQSGAEVKKPGASVKVSCKASGYTFTNYFMHWVRQAPGQGLEWMGIINPSGGSTSYAQKFQGRVTMTRDTSTSTVYMELSSLRSEDTAVYYCARAHTVYYYGMDVWGQGTMVTVSS VL: DIQMTQSPSSLSASVGDRVTITCRASQSISSWLAWYQQKPGKAPKLLIYAASTLQSGVPSRFSGSGSGTDFTLTISSLQPEDFATYYCQQSYSTPWTFGQGTKLEIKR | 10 to 30 | 10 to 30
19 | Polypeptide No. 278 (scFv, V domains shown, scFv) VH: QVQLVQSGAEVKKPGASVKVSCKASGYTFTSYYMHWVRQAPGQGLEWMGIINPSSGSTTYAQKFQGRVTMTRDTSTSTVYMELSSLRSEDTAVYYCARSVGATSAFDIWGQGTMVTVSS VL: not shown | > 30 | > 30
